Results reported in patent US10500249B2, “Compositions and methods for preventing or treating diseases, conditions, or processes characterized by aberrant fibroblast proliferation and extracellular matrix deposition” (MOERAE MATRIX, INC., priority 2014, dated 2019).

How the values were obtained:
Assay in all cases: Kinase Profiling Assay
Assay type in all cases: biochemical
Details in all cases: 100 μM
ALK4 (h) = target: T1, ALK4 (h) (Homo sapiens, UniProt P36896)
T1 sequence (P36896 24-505): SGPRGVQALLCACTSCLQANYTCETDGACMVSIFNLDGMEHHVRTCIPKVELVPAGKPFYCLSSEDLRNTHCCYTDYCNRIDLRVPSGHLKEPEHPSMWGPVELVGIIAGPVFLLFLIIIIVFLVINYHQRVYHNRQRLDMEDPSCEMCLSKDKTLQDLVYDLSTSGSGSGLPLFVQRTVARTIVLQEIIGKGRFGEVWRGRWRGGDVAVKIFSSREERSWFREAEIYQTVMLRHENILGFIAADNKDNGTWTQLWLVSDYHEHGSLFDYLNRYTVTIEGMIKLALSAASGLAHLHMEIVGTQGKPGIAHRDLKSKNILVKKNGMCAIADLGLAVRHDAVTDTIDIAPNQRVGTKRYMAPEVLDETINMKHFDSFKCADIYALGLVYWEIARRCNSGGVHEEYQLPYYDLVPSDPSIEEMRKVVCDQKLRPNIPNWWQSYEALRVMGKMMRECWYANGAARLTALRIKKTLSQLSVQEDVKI
How it was run: (§1)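 Radiometric filter-binding format: cationic substrate takes up labeled phosphate from ATP unless the inhibitor peptide blocks the kinase. Substrate bound to an anionic filter, scintillation-counted, normalized to 100% activity control. Duplicates; part of a 266-kinase selectivity panel for MK2 peptides.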

Abl(Y253F) (h) = Abl(Y253F) (h) (Homo sapiens, UniProt P00519, Y253F)
How it was run: as §1

Haspin (h) = target: T2, Haspin (h) (Homo sapiens, UniProt Q8TF76)
T2 construct: purchased Millipore
T2 sequence (Q8TF76 1-798): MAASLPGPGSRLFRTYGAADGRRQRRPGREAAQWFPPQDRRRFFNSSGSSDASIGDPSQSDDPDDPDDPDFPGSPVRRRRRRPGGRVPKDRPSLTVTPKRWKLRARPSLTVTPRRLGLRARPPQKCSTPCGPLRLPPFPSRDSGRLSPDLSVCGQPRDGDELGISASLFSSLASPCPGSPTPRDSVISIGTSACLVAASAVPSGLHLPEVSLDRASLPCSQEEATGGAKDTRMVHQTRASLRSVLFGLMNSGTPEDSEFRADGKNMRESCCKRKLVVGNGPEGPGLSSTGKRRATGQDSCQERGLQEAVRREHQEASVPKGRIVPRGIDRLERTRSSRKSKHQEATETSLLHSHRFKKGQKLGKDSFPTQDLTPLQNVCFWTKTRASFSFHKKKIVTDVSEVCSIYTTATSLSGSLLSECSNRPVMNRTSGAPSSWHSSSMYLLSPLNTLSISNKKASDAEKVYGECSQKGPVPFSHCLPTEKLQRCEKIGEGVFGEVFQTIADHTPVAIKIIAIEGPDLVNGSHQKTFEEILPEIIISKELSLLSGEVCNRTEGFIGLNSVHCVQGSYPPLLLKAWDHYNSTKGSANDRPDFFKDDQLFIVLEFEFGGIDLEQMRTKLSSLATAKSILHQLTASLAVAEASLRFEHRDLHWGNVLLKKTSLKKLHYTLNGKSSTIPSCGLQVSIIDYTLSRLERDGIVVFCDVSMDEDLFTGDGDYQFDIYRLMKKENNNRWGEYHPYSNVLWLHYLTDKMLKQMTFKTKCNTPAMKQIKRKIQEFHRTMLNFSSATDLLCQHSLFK
How it was run: as §1

MEK1 (h) = MEK1 (h) (Homo sapiens, UniProt Q02750)
How it was run: as §1

Rsk2 (h) = Rsk2 (h) (Homo sapiens, UniProt P51812)
How it was run: as §1

Bmx (h) = target: T3, Bmx (h) (Homo sapiens, UniProt P51813)
T3 sequence (P51813 1-675): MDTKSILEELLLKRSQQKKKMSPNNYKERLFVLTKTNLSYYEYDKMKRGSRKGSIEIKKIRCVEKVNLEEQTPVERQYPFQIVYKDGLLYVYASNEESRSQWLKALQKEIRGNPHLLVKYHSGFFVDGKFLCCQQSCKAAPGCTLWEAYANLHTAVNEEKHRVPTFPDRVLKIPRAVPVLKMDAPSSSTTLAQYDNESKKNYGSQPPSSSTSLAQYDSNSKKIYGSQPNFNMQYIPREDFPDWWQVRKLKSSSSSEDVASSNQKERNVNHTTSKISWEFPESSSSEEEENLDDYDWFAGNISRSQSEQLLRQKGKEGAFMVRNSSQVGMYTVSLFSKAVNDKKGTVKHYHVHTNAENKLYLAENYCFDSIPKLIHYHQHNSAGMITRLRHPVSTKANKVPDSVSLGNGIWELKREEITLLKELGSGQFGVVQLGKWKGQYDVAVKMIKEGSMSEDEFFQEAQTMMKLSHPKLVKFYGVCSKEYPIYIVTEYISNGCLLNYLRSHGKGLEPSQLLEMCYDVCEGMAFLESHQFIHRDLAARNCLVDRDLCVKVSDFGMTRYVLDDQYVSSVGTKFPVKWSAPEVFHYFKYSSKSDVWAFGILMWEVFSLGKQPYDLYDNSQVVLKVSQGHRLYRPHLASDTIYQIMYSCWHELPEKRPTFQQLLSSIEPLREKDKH
How it was run: as §1

EGFR(L858R) (h) = target: T4, EGFR(L858R) (h) (Homo sapiens, UniProt P00533, L858R)
T4 construct: purchased Millipore
How it was run: as §1

FGFR3 (h) = FGFR3 (h) (Homo sapiens, UniProt P22607)
How it was run: as §1

Chain of FGFR3 (h) (P22607 23-806): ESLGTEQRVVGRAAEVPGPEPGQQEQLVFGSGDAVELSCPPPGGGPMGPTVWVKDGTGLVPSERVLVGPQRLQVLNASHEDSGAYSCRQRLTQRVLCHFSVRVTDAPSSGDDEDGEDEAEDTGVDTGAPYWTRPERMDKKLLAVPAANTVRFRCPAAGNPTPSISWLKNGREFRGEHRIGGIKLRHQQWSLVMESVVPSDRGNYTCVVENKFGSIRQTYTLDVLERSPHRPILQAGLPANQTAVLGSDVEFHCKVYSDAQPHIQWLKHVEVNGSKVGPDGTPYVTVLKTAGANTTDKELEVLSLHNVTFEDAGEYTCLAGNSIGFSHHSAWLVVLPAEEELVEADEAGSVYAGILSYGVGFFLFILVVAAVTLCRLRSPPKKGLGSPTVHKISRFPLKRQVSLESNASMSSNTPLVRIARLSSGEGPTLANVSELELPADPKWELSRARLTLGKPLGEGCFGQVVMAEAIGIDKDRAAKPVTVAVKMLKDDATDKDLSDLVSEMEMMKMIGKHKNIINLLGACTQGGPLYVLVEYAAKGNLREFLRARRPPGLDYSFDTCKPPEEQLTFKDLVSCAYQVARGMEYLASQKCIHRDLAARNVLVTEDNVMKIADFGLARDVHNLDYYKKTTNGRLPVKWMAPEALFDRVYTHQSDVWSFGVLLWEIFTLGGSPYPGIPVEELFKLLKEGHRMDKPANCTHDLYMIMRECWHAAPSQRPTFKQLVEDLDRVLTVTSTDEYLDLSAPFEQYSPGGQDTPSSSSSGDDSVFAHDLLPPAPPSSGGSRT
Chain of Rsk2 (h) (P51812 whole entry): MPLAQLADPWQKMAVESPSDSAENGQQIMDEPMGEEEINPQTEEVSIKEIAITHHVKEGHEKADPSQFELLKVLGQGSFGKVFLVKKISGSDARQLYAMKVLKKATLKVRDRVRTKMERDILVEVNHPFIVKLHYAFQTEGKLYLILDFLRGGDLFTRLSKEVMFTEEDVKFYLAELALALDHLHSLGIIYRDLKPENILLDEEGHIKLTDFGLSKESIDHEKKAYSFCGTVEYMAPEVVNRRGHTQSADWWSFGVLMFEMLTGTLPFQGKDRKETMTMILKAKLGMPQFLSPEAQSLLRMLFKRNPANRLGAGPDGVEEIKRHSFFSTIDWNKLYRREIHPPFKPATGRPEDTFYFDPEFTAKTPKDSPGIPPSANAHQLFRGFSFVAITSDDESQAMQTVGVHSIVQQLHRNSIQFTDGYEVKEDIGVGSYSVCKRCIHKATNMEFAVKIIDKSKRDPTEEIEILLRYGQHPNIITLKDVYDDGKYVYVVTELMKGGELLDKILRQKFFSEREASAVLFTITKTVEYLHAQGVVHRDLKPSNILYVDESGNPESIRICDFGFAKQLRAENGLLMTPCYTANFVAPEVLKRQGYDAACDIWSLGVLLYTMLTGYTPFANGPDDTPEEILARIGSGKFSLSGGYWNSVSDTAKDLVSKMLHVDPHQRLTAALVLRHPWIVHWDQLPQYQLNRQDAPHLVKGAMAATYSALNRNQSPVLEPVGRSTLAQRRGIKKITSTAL

Row | Sequence | % activity (ALK4 (h)) | % activity (Abl(Y253F) (h)) | % activity (Haspin (h)) | % activity (MEK1 (h)) | % activity (Rsk2 (h)) | % activity (Bmx (h)) | % activity (EGFR(L858R) (h)) | % activity (FGFR3 (h))
1 | FAKLAARLYRKALARQLGVAA [MMI-0300] | 140% | 86% | 48% | 77% | 51% | – | – | –
2 | HRRIKAWLKKIKALARQLGVAA (Mammalian) [MMI-0500] | 81% | 29% | 25% | 21% | 14% | 45% | 26% | 10%
3 | KAFAKLAARLYRKALARQLGVAA [MMI-0400] | 130% | 78% | 36% | 77% | 38% | 26% | 52% | 0%
4 | YARAAARQARAKALNRQLGVA (Mammalian) [MMI-0200] | 152% | – | 71% | – | 101% | 76% | 120% | 208%
